Experimental data: US20180134794A1
Read-outs that look alike come from different tables or passages of the source.

Legend:
[1] = target: human MET (c-Met, HGFR) endogenously expressed on cell lines (human) (UniProt P08581)
[2] = target: human MET (c-Met, HGFR) endogenously expressed on cell lines (human) (UniProt P08581); remark: listed apart in the source

Chain of human MET (c-Met, HGFR) endogenously expressed on cell lines (human) (P08581 25-1390): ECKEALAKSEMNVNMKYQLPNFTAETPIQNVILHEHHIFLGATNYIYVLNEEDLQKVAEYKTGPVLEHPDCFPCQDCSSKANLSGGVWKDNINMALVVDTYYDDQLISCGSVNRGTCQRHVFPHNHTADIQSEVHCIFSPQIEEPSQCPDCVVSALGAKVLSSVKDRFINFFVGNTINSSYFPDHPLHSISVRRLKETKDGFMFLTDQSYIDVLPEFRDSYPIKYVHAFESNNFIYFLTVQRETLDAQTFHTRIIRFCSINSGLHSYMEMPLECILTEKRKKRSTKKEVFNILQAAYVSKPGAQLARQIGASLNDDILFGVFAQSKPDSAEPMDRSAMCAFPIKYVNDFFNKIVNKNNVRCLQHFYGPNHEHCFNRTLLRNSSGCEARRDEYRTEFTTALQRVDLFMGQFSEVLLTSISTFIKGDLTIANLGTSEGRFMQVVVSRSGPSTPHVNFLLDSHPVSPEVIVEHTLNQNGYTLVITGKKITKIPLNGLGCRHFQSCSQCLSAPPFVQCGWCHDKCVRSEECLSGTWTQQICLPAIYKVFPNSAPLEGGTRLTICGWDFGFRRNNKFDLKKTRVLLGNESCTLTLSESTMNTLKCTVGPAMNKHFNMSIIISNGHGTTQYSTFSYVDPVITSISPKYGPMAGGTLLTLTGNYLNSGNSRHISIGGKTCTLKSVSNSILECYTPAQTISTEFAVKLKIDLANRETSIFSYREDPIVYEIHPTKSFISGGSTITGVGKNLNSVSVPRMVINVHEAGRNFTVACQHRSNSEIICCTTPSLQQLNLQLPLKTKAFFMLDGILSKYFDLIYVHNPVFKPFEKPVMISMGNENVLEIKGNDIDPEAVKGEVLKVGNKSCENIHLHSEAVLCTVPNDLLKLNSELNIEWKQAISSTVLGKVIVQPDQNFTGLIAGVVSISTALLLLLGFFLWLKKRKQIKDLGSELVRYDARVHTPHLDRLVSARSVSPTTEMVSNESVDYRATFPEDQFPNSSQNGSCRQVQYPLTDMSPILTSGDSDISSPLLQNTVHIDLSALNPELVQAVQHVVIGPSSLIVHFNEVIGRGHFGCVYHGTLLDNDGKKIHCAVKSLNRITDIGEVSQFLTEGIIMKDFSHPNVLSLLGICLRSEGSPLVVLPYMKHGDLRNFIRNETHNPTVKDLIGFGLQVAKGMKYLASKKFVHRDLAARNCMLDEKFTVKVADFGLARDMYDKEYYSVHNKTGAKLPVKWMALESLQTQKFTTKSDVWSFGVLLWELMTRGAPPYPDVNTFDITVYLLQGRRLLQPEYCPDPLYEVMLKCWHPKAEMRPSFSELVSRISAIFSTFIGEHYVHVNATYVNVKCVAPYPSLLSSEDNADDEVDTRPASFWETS

IC50 (read off the curve), inhibition of HGF-induced SRE-luciferase signal [1]: 60 pM
IC50 (read off the curve), inhibition of HGF-induced SRE-luciferase signal [2]: 400 pM
Substance: monovalent anti-MET antibody (heavy and light chain variable sequences of MetMab)
